Laboratory results taken from patent US5993803A, “Method of reducing the severity of host vs graft reaction by down-regulating hsp60 autoimmunity” (Yeda Research and Development Co., Ltd., priority 1996, dated 1999).
Entries after “also recorded” stand apart in the source; their conditions may differ.

What was measured:
[1] = system: BALB/c (H-2^d) skin allograft rejection in C57BL/6 (H-2^b) mice; assay type: in vivo, mouse; settings: C57BL/6 recipients; 50 μg in incomplete Freund's adjuvant s.c. 2 weeks before transplantation; Wilcoxon test; FIG. 3A
Procedure: (§1) FIGS. 3A and 3B show the effects of treating C57BL6 (H-2^b) mice (FIG. 3A) or wild-type NOD (H-2^g7) mice (FIG. 3B) with hsp60 (50 μg in incomplete Freund's adjuvant; Sigma) administered subcutaneously in the back 2 weeks before transplantation of BALB/c (H-2^d) skin (Elias et al., 1994; Elias et al., 1995). […] Control mice were untreated (open squares) or treated with incomplete Freund's adjuvant containing 50 μg of recombinant glutathione transferase (open diamonds).

[2] = system: spleen cells of treated NOD or C57BL mice stimulated with irradiated BALB/c spleen cells; assay: Mixed lymphocyte reaction (MLR) of spleen cells from treated, grafted mice with irradiated BALB/c spleen cells; assay type: cell-based, mouse
Text: T cells reactive to hsp60 and other hsp molecules have been isolated from cardiac allografts (Moliterno et al., 1995) as well as from other inflammatory lesions (Selmaj et al., 1991; Mor et al., 1992). […] It is theorized that the constitutive hyper-expression of hsp60 in the donor Eα-hsp60 skin amplifies the activation of anti-hsp60 autoimmune T cells at the site and enhance the local immune response by adding pro-inflammatory (TH1-type) cytokines, such as INFγ (Finkelman et al., 1990), to the allograft reaction, thereby inciting and abetting other T cells responsive to the foreign antigens. Conversely, hsp60 autoimmune T cells that have been activated to produce anti-inflammatory cytokines of the TH2-type, such as IL-10, should serve to shut down the effector immune reaction by a form of by-stander suppression (Weiner et al., 1994). To test whether treatment with hsp60 peptides might modify the cytokine response, NOD or C57BL mice were treated with hsp60 or with hsp60 peptide p12. Control mice were untreated or were treated with saline emulsified in IFA. The mice were grafted with BALB/c skin grafts and twenty days later, just at the beginning of graft rejection in the control mice, groups of 5-10 mice were sacrificed and their spleen cells assayed individually in a standard mixed lymphocyte reaction (MLR) with irradiated BALB/c spleen cells as stimulators (Lohse et al., 1990). […] However, the MLR media were also tested for the presence of the TH1 cytokine IFNγ and the TH2 cytokine IL-10.

[3] = system: BALB/c (H-2^d) skin allograft rejection in wild-type NOD (H-2^g7) mice; assay type: in vivo, mouse; settings: wild-type NOD recipients; 50 μg in incomplete Freund's adjuvant s.c. 2 weeks before transplantation; Wilcoxon test; FIG. 3B
Procedure: as §1
Wild-type NOD (H-2^g7) mice were treated with various hsp60 peptides in incomplete Freund's adjuvant. […] Control mice were untreated (open square) or were treated with incomplete Freund's adjuvant containing 50 μg of peptide p11, a control non-immunogenic hsp60 peptide (closed diamond). […] Each group contained 10-12 mice.
Patches of dorsal skin of one cm^2 were removed from anesthetized recipient mice treated with Nembutal 6 mg/ml, 0.25 ml per mouse and replaced by the donor skin grafts. Histoacryl (B. Braun Meleungen AG, D-34209 Melsungen, Germany) was applied around the grafts and Nobecutan (ASTR, Astra Tech, POB 13, Glos G15, UK) was sprayed over them.

B1: hsp60: Recombinant human 60 kDa heat shock protein, SEQ ID NO:1 (protein, UniProt P10809 27-573, looked up)
60 kDa heat shock protein, …: AKDVKFGADARALMLQGVDLLADAVAVTMGPKGRTVIIEQSWGSPKVTKDGVTVAKSIDLKDKYKNIGAKLVQDVANNTNEEAGDGTTTATVLARSIAKEGFEKISKGANPVEIRRGVMLAVDAVIAELKKQSKPVTTPEEIAQVATISANGDKEIGNIISDAMKKVGRKGVITVKDGKTLNDELEIIEGMKFDRGYISPYFINTSKGQKCEFQDAYVLLSEKKISSIQSIVPALEIANAHRKPLVIIAEDVDGEALSTLVLNRLKVGLQVVAVKAPGFGDNRKNQLKDMAIATGGAVFGEEGLTLNLEDVQPHDLGKVGEVIVTKDDAMLLKGKGDKAQIEKRIQEIIEQLDVTTSEYEKEKLNERLAKLSDGVAVLKVGGTSDVEVNEKKDRVTDALNATRAAVEEGIVLGGGCALLRCIPALDSLTPANEDQKIGIEIIKRTLKIPAMTIAKNAGVEGSLIVEKIMQSSSEVGYDAMAGDFVNMVEKGIIDPTKVVRTALLDAAGVASLLTTAEVVVTEIPKEEKDPGMGAMGGMGGGMGGGMF
survival of BALB/c skin grafts (delay in skin allograft rejection) [1]: significantly prolonged survival; also recorded: significant | T-cell proliferation by thymidine incorporation in MLR, treated vs control groups ([2]; spleen cells taken 20 days after BALB/c skin grafting, hsp60 and p12 treated mice reported together): no significant differences | IL-10 produced in MLR media ([2]; spleen cells taken 20 days after grafting, hsp60 and p12 treated mice pooled, control mice 3.5±0.6, p=0.004): 8 ± 1.4 ng/mL | IFNγ produced in MLR media ([2]; spleen cells taken 20 days after grafting, hsp60 and p12 treated mice pooled, control mice 9.25±1.7, p=0.002): 3.13 ± 1.4 ng/mL | survival of BALB/c skin grafts (delay in skin allograft rejection) [3]: delayed rejection; also recorded: significant
